In article PMC4737156, “Taking a molecular motor for a spin: helicase mechanism studied by spin labeling and PELDOR”:
Positions count from the first letter of the chain named.

Columns and labels:
[1] = target: T1, PcrA E74C/Q506C-R1 (1A-2B) (Bacillus stearothermophilus, UniProt P56255 1-724, E74C;Q506C); test: PELDOR (DEER) EPR; no nucleotide; distances 35 and 45 A (0.5:1); PELDOR in D2O buffer (composition, pH not given in material): PcrA 70 uM, DNA 150 uM, nucleotide 10-fold excess, 1 mM MgCl2, 5% EG-d6; XPD 40-50 uM, DNA about 2x, nucleotide/MgCl2 1 mM; settings: protein: recombinant; tags: none stated; hairpin, 11 bp duplex, 3' overhang 10 nt
T1 sequence: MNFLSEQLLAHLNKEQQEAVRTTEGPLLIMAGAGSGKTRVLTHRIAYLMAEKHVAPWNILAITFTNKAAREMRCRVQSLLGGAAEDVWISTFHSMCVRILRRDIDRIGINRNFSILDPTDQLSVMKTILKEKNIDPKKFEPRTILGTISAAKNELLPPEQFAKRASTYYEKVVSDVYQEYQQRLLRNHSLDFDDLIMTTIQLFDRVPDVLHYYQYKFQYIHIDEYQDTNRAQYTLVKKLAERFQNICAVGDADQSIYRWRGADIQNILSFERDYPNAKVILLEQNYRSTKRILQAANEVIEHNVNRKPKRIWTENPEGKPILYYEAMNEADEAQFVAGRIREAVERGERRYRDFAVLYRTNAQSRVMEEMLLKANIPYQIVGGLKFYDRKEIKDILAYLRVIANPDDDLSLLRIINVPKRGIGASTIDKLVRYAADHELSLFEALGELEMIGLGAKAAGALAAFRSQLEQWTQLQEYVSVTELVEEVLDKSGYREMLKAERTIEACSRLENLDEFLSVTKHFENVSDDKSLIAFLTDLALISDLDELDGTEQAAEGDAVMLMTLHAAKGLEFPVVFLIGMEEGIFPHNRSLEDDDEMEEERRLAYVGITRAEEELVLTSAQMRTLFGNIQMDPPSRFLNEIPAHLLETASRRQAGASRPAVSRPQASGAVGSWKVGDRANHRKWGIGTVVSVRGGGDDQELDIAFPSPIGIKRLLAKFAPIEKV

[2] = target: T2, PcrA V344C/Q506C-R1 (2A-2B) (Bacillus stearothermophilus, UniProt P56255 1-724, V344C;Q506C); test: PELDOR (DEER) EPR; no nucleotide; distances 37.3 and 44.1 A (1:0.7); PELDOR in D2O buffer (composition, pH not given in material): PcrA 70 uM, DNA 150 uM, nucleotide 10-fold excess, 1 mM MgCl2, 5% EG-d6; XPD 40-50 uM, DNA about 2x, nucleotide/MgCl2 1 mM; settings: protein: recombinant; tags: none stated; hairpin, 11 bp duplex, 3' overhang 10 nt
T2 sequence: T1 sequence with C74E, V344C

B1: hairpin with 3'-(dT)10 overhang (structured_DNA)
DNA: CGAGCACTGCTTTAGCAGTGCTCGTTTTTTTTTT
binding result [1]: binds | binding result [2]: binds
